T1: RGS9-2 (mouse (endogenous in striatum), UniProt O54828-1 1-675)
T1 sequence (looked up): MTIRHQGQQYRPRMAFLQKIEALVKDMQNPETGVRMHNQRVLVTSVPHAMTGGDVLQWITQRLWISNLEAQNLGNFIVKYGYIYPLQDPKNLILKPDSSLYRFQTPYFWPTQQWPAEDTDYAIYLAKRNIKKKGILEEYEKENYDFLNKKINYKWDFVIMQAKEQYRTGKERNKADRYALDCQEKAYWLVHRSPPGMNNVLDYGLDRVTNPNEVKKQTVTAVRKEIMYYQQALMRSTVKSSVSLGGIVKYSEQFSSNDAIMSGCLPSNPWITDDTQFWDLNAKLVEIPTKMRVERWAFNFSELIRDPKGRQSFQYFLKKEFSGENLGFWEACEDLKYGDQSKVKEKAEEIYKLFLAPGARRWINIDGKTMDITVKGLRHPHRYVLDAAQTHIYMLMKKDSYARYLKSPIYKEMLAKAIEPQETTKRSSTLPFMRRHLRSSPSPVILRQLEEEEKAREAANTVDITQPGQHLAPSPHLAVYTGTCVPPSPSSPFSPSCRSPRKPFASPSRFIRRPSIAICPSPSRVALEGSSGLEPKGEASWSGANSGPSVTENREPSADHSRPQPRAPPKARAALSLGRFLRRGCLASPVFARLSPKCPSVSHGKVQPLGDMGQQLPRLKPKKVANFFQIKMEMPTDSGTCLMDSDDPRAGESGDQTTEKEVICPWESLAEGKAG


Molecular target: T1, RGS9-2
Test: co-IP

| Binder | co-IP signal after chronic morphine, % compared with vehicle-treated mice [%] |
| --- | --- |
| Gαq (natural protein, mouse (endogenous in striatum), UniProt P21279 1-359, looked up) MTLESIMACCLSEEAKEARRINDEIERQLRRDKRDARRELKLLLLGTGESGKSTFIKQMRIIHGSGYSDEDKRGFTKLVYQNIFTAMQAMIRAMDTLKIPYKYEHNKAHAQLVREVDVEKVSAFENPYVDAIKSLWNDPGIQECYDRRREYQLSDSTKYYLNDLDRVADPSYLPTQQDVLRVRVPTTGIIEYPFDLQSVIFRMVDVGGQRSERRKWIHCFENVTSIMFLVALSEYDQVLVESDNENRMEESKALFRTIITYPWFQNSSVILFLNKKDLLEEKIMYSHLVDYFPEYDGPQRDAQAAREFILKMFVDLNPDSDKIIYSHFTCATDTENIRFVFAAVKDTILQLNLKEYNLV | 216 |
| Gβ5 (natural protein, mouse (endogenous in striatum), UniProt P62881-2 1-353, looked up) MATDGLHENETLASLKSEAESLKGKLEEERAKLHDVELHQVAERVEALGQFVMKTRRTLKGHGNKVLCMDWCKDKRRIVSSSQDGKVIVWDSFTTNKEHAVTMPCTWVMACAYAPSGCAIACGGLDNKCSVYPLTFDKNENMAAKKKSVAMHTNYLSACSFTNSDMQILTASGDGTCALWDVESGQLLQSFHGHGADVLCLDLAPSETGNTFVSGGCDKKAMVWDMRSGQCVQAFETHESDVNSVRYYPSGDAFASGSDDATCRLYDLRADREVAIYSKESIIFGASSVDFSLSGRLLFAGYNDYTINVWDVLKGSRVSILFGHENRVSTLRVSPDGTAFCSGSWDHTLRVWA | 171 |

Source: PMC3412365 (The Journal of neuroscience : the official journal of the …, 2011)
